EP1403367A1, “METHOD OF TESTING DRUG FOR TREATING OR PREVENTING DISEASES SUCH AS HYPERLIPEMIA” (Sankyo Company Limited, priority 2001, dated 2002)

What was measured:
[1] = test system: rat "angiopoietin-related protein 3" gene; test: TaqMan PCR quantification of liver angiopoietin-related protein 3 gene expression after bezafibrate in feed; type: in vivo, Zucker fatty rats; details: 0.3% in F2 powder feed for seven days, compared to the control group, corrected with 18S ribosome
Source text: (§1) For seven days, the antilipemic bezafibrate (manufactured by Sigma) mixed with F2 powder feed (manufactured by Funabashi Noujou) at 0.3% of concentration was administrated to two Zucker fatty rats (purchased from Nihon Charles River) of age 11 weeks.
To the two rats in the control group only F2 powder feed was given. After collecting blood samples from each of the rats under both conditions, the liver thereof was extracted, put in liquid nitrogen immediately to be frozen rapidly, and kept at -80 °C. 5 ml of TRIzol reagent (manufactured by Gibco BRL) were added to 0.1 g of the liver tissue obtained, and it was homogenized on ice using an ultra high-speed homogenizer (Polytoron, manufactured by ckinematica) (at dial 10 for 2 minutes). After incubation for 5 minutes at a room temperature, 1 ml of chloroform was added and mixed vigorously for 15 seconds. […]
A single stranded cDNA was produced according to the following procedures. […] After completion of the reaction, 29 µl of ribonuclease-free purified water was added to each of the samples, and diluted with ribonuclease-free purified water a further 5 times for use in the following quantification. The single-stranded cDNA solution for creation of a calibration-curve was prepared by producing a 5-times serial dilution with ribonuclease-free purified water from the solution for quantification derived from one control sample. […]

[2] = Concentration of neutral fat in blood after bezafibrate in feed; type: in vivo, Zucker fatty rats; details: 0.3% in F2 powder feed for seven days; compared to the control group
Source text: as §1
To the two rats in the control group only F2 powder feed was given. After collecting blood samples from each of the rats under both conditions, the liver thereof was extracted, put in liquid nitrogen immediately to be frozen rapidly, and kept at -80 °C. 5 ml of TRIzol reagent (manufactured by Gibco BRL) were added to 0.1 g of the liver tissue obtained, and it was homogenized on ice using an ultra high-speed homogenizer (Polytoron, manufactured by ckinematica) (at dial 10 for 2 minutes). After incubation for 5 minutes at a room temperature, 1 ml of chloroform was added and mixed vigorously for 15 seconds.

[3] = biological target: lipoprotein lipase (LPL) originated from a rat fat cell (rat) (UniProt Q06000); test: cell-based or functional assay
[4] = biological target: hepatic triacylglycerol lipase (HTGL) in mouse plasma after administering heparin intravenously (mouse) (UniProt P27656); test: cell-based or functional assay
[5] = biological target: lipoprotein lipase (LPL) in mouse plasma after administering heparin intravenously (mouse) (UniProt P11152); test: cell-based or functional assay
UniProt P11152, sequence (P11152 28-474 limits assumed): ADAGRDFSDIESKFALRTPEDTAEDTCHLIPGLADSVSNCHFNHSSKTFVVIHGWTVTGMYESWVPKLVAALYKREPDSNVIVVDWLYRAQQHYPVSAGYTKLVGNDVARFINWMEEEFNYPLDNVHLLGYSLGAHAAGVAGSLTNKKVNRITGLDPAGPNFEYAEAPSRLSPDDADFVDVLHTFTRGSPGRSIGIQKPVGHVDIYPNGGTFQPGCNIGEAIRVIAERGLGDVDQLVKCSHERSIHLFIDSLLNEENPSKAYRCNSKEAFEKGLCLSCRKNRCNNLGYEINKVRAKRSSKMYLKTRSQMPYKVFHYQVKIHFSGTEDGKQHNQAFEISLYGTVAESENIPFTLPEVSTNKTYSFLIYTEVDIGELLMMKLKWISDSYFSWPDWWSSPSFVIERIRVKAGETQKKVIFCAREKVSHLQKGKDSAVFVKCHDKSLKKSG

UniProt Q06000, sequence (Q06000 28-474 limits assumed): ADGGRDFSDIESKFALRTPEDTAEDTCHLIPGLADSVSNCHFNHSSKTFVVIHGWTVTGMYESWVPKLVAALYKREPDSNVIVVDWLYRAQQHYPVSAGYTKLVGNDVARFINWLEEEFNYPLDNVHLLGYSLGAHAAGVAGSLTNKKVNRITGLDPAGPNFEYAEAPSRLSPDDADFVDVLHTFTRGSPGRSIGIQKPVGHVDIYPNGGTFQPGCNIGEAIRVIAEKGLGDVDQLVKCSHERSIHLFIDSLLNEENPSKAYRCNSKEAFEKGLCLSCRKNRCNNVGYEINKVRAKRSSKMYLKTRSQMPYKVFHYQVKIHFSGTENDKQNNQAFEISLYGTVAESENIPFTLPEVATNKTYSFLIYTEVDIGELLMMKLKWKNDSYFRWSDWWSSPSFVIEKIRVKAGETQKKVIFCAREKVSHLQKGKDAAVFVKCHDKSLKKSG
UniProt P27656, sequence (P27656 22-510 limits assumed): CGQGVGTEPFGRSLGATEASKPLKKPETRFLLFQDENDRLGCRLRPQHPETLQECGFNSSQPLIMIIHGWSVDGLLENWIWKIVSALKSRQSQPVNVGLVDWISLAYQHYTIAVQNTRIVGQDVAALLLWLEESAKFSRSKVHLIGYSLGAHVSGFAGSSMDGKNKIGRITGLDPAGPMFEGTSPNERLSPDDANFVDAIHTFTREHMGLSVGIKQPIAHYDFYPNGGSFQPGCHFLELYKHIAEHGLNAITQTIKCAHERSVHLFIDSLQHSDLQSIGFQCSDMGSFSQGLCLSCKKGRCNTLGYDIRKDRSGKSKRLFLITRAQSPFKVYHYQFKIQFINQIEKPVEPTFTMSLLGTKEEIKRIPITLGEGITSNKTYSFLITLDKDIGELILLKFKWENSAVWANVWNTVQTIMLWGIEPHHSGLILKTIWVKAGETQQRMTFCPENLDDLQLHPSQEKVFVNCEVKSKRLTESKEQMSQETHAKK

Compound: CC(C)(Oc1ccc(CCNC(=O)c2ccc(Cl)cc2)cc1)C(=O)O [bezafibrate]
- level of expression of a rat "angiopoietin-related protein 3" gene decreased [1]: 73%
- concentration of neutral fat in blood reduced [2]: 50%

Compound: GST-ARP4Full (glutathione-S-transferase connected to the amino terminus of amino acid numbers 26-406 of SEQ ID No. 16, angiopoietin related protein 4) (from UniProt P08515 1-218)
- relative value of LPL activity (%) at 1 µg/ml GST-ARP4Full (GST 10 µg/ml = 100 %) [3]: 67%
- relative value of LPL activity (%) at 2.5 µg/ml GST-ARP4Full (GST 10 µg/ml = 100 %) [3]: 30%
- relative value of LPL activity (%) at 5 µg/ml GST-ARP4Full (GST 10 µg/ml = 100 %) [3]: 16%
- relative value of LPL activity (%) at 10 µg/ml GST-ARP4Full (GST 10 µg/ml = 100 %) [3]: 5%

Compound: GST-ARP4N (glutathione-S-transferase connected to the amino terminus of amino acid numbers 26-143 of SEQ ID No. 16, angiopoietin related protein 4) (from UniProt P08515 1-218)
- LPL activity (%) at 1 µg/ml GST-ARP4N (GST 10 µg/ml = 100 %) [3]: 74%
- LPL activity (%) at 2.5 µg/ml GST-ARP4N (GST 10 µg/ml = 100 %) [3]: 61%
- LPL activity (%) at 5 µg/ml GST-ARP4N (GST 10 µg/ml = 100 %) [3]: 34%
- LPL activity (%) at 10 µg/ml GST-ARP4N (GST 10 µg/ml = 100 %) [3]: 16%

Compound: KhAP5 CC/His (N terminal 207 amino acid partial protein of angiopoietin-related protein 3 with a histidine tag inserted after residue 20) (ligand)
- relative value of LPL activity (%) at 0 µg/ml KhAP5 CC/His [3]: 100%
- relative value of LPL activity (%) at 1 µg/ml KhAP5 CC/His [3]: 27%
- relative value of LPL activity (%) at 2.5 µg/ml KhAP5 CC/His [3]: 21%
- relative value of LPL activity (%) at 5 µg/ml KhAP5 CC/His [3]: 14%
- relative value of LPL activity (%) at 10 µg/ml KhAP5 CC/His [3]: 11%

Compound: human angiopoietin-related protein 3 (polypeptide consisting of amino acid numbers 17-460 of SEQ ID No. 4) (ligand)
- relative value of HTGL activity (%) at 0 µg/ml polypeptide [4]: 100%
- relative value of HTGL activity (%) at 1 µg/ml polypeptide [4]: 109%
- relative value of HTGL activity (%) at 2.5 µg/ml polypeptide [4]: 94%
- relative value of HTGL activity (%) at 5 µg/ml polypeptide [4]: 80%
- relative value of HTGL activity (%) at 10 µg/ml polypeptide [4]: 64%
- relative value of LPL activity (%) at 0 µg/ml polypeptide [5]: 100%
- relative value of LPL activity (%) at 1 µg/ml polypeptide [5]: 93%
- relative value of LPL activity (%) at 2.5 µg/ml polypeptide [5]: 82%
- relative value of LPL activity (%) at 5 µg/ml polypeptide [5]: 70%
- relative value of LPL activity (%) at 10 µg/ml polypeptide [5]: 49%
- relative value of LPL activity (%) at 0 µg/ml polypeptide [3]: 100%
- relative value of LPL activity (%) at 1 µg/ml polypeptide [3]: 84%
- relative value of LPL activity (%) at 2.5 µg/ml polypeptide [3]: 64%
- relative value of LPL activity (%) at 5 µg/ml polypeptide [3]: 52%
- relative value of LPL activity (%) at 10 µg/ml polypeptide [3]: 29%
